Data set [1] concerns the molecule itself. Kind of data set: circular dichroism with thermal melting; peptides in PBS, heated at 95 °C, annealed at 4 °C overnight; [θ]225 followed from 4 to 85 °C; chains of one peptide forming a triple helix. Background: CD spectra are sensitive to the conformation of chiral molecules.
In data set [2] the target is T1, glutathione S-transferase (GST)-PEDF-fusion protein (mouse, UniProt P97298 20-417).
T1 construct: pigment epithelium-derived factor (PEDF); also called GST-fused PEDF; recombinant PEDF
T1 sequence (looked up): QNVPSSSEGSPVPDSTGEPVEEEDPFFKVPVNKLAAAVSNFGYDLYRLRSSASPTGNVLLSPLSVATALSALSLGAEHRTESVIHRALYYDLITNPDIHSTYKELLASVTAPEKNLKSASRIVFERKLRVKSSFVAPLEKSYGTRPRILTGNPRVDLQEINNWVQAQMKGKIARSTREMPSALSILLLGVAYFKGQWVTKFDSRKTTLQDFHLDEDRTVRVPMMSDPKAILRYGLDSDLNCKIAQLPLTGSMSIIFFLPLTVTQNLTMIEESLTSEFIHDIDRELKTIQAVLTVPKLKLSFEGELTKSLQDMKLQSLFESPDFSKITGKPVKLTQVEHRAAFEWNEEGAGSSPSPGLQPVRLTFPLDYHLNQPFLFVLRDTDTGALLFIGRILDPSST
Briefly: ELISA; competitive ELISA: wells coated with 10 μg/ml collagen I; annealed peptides preincubated with 3 nM GST-PEDF for 10 min at room temperature in 20 mM HEPES-Na pH 7.4, 100 mM NaCl, 0.005% Tween 20; 90 min at 4 °C in the wells; HRP-anti-GST detection. To be noted: both partners purified.

Some results are limits rather than exact numbers.

B1: synthetic triple-helical peptide pep8 (peptide)
chain: YPPGPPGPPGPPGPRGPRGLLGLPGPPGPPGPPGPPG
HELM: PEPTIDE1{Y.P.[Hyp].G.P.[Hyp].G.P.[Hyp].G.P.[Hyp].G.P.R.G.P.R.G.L.L.G.L.[Hyp].G.P.[Hyp].G.P.[Hyp].G.P.[Hyp].G.P.[Hyp].G.[am]}$$$$V2.0; N-terminus assumed
SMILES: CC(C)C[C@H](NC(=O)CNC(=O)[C@H](CCCNC(=N)N)NC(=O)[C@@H]1CCCN1C(=O)CNC(=O)[C@H](CCCNC(=N)N)NC(=O)[C@@H]1CCCN1C(=O)CNC(=O)[C@@H]1C[C@@H](O)CN1C(=O)[C@@H]1CCCN1C(=O)CNC(=O)[C@@H]1C[C@@H](O)CN1C(=O)[C@@H]1CCCN1C(=O)CNC(=O)[C@@H]1C[C@@H](O)CN1C(=O)[C@@H]1CCCN1C(=O)CNC(=O)[C@@H]1C[C@@H](O)CN1C(=O)[C@@H]1CCCN1C(=O)[C@@H](N)Cc1ccc(O)cc1)C(=O)N[C@@H](CC(C)C)C(=O)NCC(=O)N[C@@H](CC(C)C)C(=O)N1C[C@H](O)C[C@H]1C(=O)NCC(=O)N1CCC[C@H]1C(=O)N1C[C@H](O)C[C@H]1C(=O)NCC(=O)N1CCC[C@H]1C(=O)N1C[C@H](O)C[C@H]1C(=O)NCC(=O)N1CCC[C@H]1C(=O)N1C[C@H](O)C[C@H]1C(=O)NCC(=O)N1CCC[C@H]1C(=O)N1C[C@H](O)C[C@H]1C(=O)NCC(N)=O
notes: Triple helix by CD; annealed before use; source: synthetic peptide (Fmoc solid phase, RP-HPLC purified)
For the molecule B1, the binding result in data set [1] is recorded as “binds”. Also, the IC50 (commonly the concentration at which inhibition is half-maximal) in data set [2] was over 10 µM.

B2: synthetic triple-helical peptide pepα1(I)930-938: H-Tyr-(Pro-Hyp-Gly)4-Pro-Lys-Gly-His-Arg-Gly-Phe-Ser-Gly-Leu-Hyp-Gly-(Pro-Hyp-Gly)4-NH2 (peptide)
chain: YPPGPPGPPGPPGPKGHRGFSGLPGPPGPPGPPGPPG
modifications: 4-hydroxyproline (Hyp, written P in letters) at positions 3, 6, 9, 12, 24, 27, 30, 33, 36 of the chain (counted from the printed formula); C-terminal amide
notes: Tyr-(Pro-Hyp-Gly)4-Pro host; Hyp-Gly-(Pro-Hyp-Gly)4 host; Triple helix by CD; annealed before use; source: synthetic peptide (Fmoc solid phase, RP-HPLC purified)
Turning to B2, the binding result in data set [1] is listed as “binds”.

B3: synthetic triple-helical peptide pep10 (peptide)
chain: YPPGPPGPPGPPGPRGPRGFTGFPGPPGPPGPPGPPG
HELM: PEPTIDE1{Y.P.[Hyp].G.P.[Hyp].G.P.[Hyp].G.P.[Hyp].G.P.R.G.P.R.G.F.T.G.F.[Hyp].G.P.[Hyp].G.P.[Hyp].G.P.[Hyp].G.P.[Hyp].G.[am]}$$$$V2.0; N-terminus assumed
SMILES: C[C@@H](O)[C@H](NC(=O)[C@H](Cc1ccccc1)NC(=O)CNC(=O)[C@H](CCCNC(=N)N)NC(=O)[C@@H]1CCCN1C(=O)CNC(=O)[C@H](CCCNC(=N)N)NC(=O)[C@@H]1CCCN1C(=O)CNC(=O)[C@@H]1C[C@@H](O)CN1C(=O)[C@@H]1CCCN1C(=O)CNC(=O)[C@@H]1C[C@@H](O)CN1C(=O)[C@@H]1CCCN1C(=O)CNC(=O)[C@@H]1C[C@@H](O)CN1C(=O)[C@@H]1CCCN1C(=O)CNC(=O)[C@@H]1C[C@@H](O)CN1C(=O)[C@@H]1CCCN1C(=O)[C@@H](N)Cc1ccc(O)cc1)C(=O)NCC(=O)N[C@@H](Cc1ccccc1)C(=O)N1C[C@H](O)C[C@H]1C(=O)NCC(=O)N1CCC[C@H]1C(=O)N1C[C@H](O)C[C@H]1C(=O)NCC(=O)N1CCC[C@H]1C(=O)N1C[C@H](O)C[C@H]1C(=O)NCC(=O)N1CCC[C@H]1C(=O)N1C[C@H](O)C[C@H]1C(=O)NCC(=O)N1CCC[C@H]1C(=O)N1C[C@H](O)C[C@H]1C(=O)NCC(N)=O
notes: as for B1
Turning to B3, the binding result in data set [1] is listed as “binds”.

B4: synthetic triple-helical peptide pep11 (peptide)
chain: YPPGPPGPPGPPGPVGRRGLSGLPGPPGPPGPPGPPG
HELM: PEPTIDE1{Y.P.[Hyp].G.P.[Hyp].G.P.[Hyp].G.P.[Hyp].G.P.V.G.R.R.G.L.S.G.L.[Hyp].G.P.[Hyp].G.P.[Hyp].G.P.[Hyp].G.P.[Hyp].G.[am]}$$$$V2.0; N-terminus assumed
SMILES: CC(C)C[C@H](NC(=O)CNC(=O)[C@H](CCCNC(=N)N)NC(=O)[C@H](CCCNC(=N)N)NC(=O)CNC(=O)[C@@H](NC(=O)[C@@H]1CCCN1C(=O)CNC(=O)[C@@H]1C[C@@H](O)CN1C(=O)[C@@H]1CCCN1C(=O)CNC(=O)[C@@H]1C[C@@H](O)CN1C(=O)[C@@H]1CCCN1C(=O)CNC(=O)[C@@H]1C[C@@H](O)CN1C(=O)[C@@H]1CCCN1C(=O)CNC(=O)[C@@H]1C[C@@H](O)CN1C(=O)[C@@H]1CCCN1C(=O)[C@@H](N)Cc1ccc(O)cc1)C(C)C)C(=O)N[C@@H](CO)C(=O)NCC(=O)N[C@@H](CC(C)C)C(=O)N1C[C@H](O)C[C@H]1C(=O)NCC(=O)N1CCC[C@H]1C(=O)N1C[C@H](O)C[C@H]1C(=O)NCC(=O)N1CCC[C@H]1C(=O)N1C[C@H](O)C[C@H]1C(=O)NCC(=O)N1CCC[C@H]1C(=O)N1C[C@H](O)C[C@H]1C(=O)NCC(=O)N1CCC[C@H]1C(=O)N1C[C@H](O)C[C@H]1C(=O)NCC(N)=O
notes: as for B1
Take B4: the binding result in data set [1] was “binds”.

Source of the values: publication PMC11533527, “A yeast two-hybrid system to obtain triple-helical ligands from combinatorial random peptide libraries” (The Journal of Biological Chemistry, 2024).
